# Measurements taken from the supplement of paper PMC10567573.
# ± gives the standard deviation.
# Experiment: protein stability index of a GFP-peptide fusion (GPS, HEK-293T) (PSI 1-6); higher = more stable
# Conditions: c terminus: a fixed tail appended
# 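Further: 24-mer peptide tiles fused after GFP, lentivirally expressed, FACS-sorted into six equal bins by GFP/DsRed ratio, decoded by Illumina sequencing, PSI is the read-weighted mean bin number.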
Sequence,protein stability index (treatment: DMSO),"protein stability index (treatment: MLN4924 1 uM, 8 h)"
AAEYHAQRLKAVIVIQTYYRQWHA [IQUB],4.97 ± 0.25,4.88 ± 0.32
AAGEQLQQQHVSCQVFPERLAQGN [ATP23],4.47 ± 0.15,4.5 ± 0.28
AAGVFSNPAVRTAAANAAAGAAEN [SCAMP3],5.03 ± 0.1,5.06 ± 0.23
AALHIDLCKATSPADALQYLLQFA [INTS4],2.36 ± 0.51,2.29 ± 0.15
AAPAAKTRKQAAKKVAPLMAKAIR [ELOA2],3.78 ± 0.24,4.16 ± 0.21
AAPPPLKDDPEGDRDGCVITKVLL [ZBED3],3.62 ± 0.27,3.62 ± 0.27
AAVVHHFESFPAGSTLIFYKYCDH [TOR1AIP2],2.37 ± 0.43,2.23 ± 0.52
ADDHRYKFADNKWSVTGKAEPAMP [TBX5],4.04 ± 0.17,4.2 ± 0.15
ADFKGVLQRPSYKFFFKSMDDDFG [DVL3],2.5 ± 0.28,2.67 ± 0.11
ADNMEFEQCIKLWLHALHLRQKGN [FEM1B],2.56 ± 0.15,2.72 ± 0.2
AEKRQIGDQEGPRPARSTLDELLG [FBF1],4.64 ± 0.22,4.93 ± 0.1
AELLKANEIIKKLQGDLKTLMGKL [SASS6],2.36 ± 0.59,3.44 ± 0.66
AEREALQARLRDVSRREGALGWAP [ZBED3],4.04 ± 0.13,3.92 ± 0.17
AESKGTGREKPGPLDFEAYSAAAL [FCHO1],4.8 ± 0.12,5.04 ± 0.22
AFCNGQKLQVSQQEDITKSLLVTE [IMPA1],3.69 ± 0.12,3.73 ± 0.27
AFPAAVSSMKKFCRPLLPSCTTRL [PSD2],2.33 ± 0.27,2.32 ± 0.093
AGGGSQENLDNDTETDSLVSAQRE [DVL3],5.32 ± 0.21,5.65 ± 0.36
AGNSTSGSRAGASSFSDPFFVVET [KCNA3],3.75 ± 0.15,3.58 ± 0.27
AIALANSDSMHIEDVEAVQKLQDV [ESRRG],4.53 ± 0.092,4.66 ± 0.15
AIDMFIIGATFTDWFTSYVKNVVS [FBXO3],2.82 ± 0.35,–
AKIRAKIPGTGALASAAAAVSGSK [RTN2],4.3 ± 0.15,4.64 ± 0.34
AKVKGEKLDKKLKKMEQNKTAATR [ATF4],4.88 ± 0.39,4.85 ± 0.16

Sequence,protein stability index (treatment: DMSO),"protein stability index (treatment: MLN4924 1 uM, 8 h)"
ALCATDVKFISNPPSMVAAGSVVA [CCND1],2.86 ± 0.28,3 ± 0.23
ALLLGQGANINAQTEETQETALTL [ANKRD17],4.17 ± 0.32,4.32 ± 0.27
ALVRLRETEEMLGKKQEYLENRIQ [CHMP4C],3.02 ± 0.46,3.35 ± 0.2
AMDNHSDSEEELAAFCPQLDDSTV [RETREG3],5.34 ± 0.23,5.4 ± 0.14
AMETDGPLFEDVQMLRKTVKDEAH [PPP2R5C],5.24 ± 0.49,5.12 ± 0.39
APTADDDDDDHDDHEDNDKMNDSE [NOL4L],5.53 ± 0.2,5.54 ± 0.28
APTSTCRTSVGVAVLGGFLYAVGG [KLHL20],3.02 ± 0.94,2.71 ± 1.2
AQLYTLWVTFQVLLYTSLPDFCHK [DHCR7],2.88 ± 0.13,3.13 ± 0.18
ARAFAEKNGLSFIETSALDSTNVE [RAB11A],4.28 ± 0.41,4.24 ± 0.44
ARDCFATGRHYWEVDVQEAGAGWW [TRIM14],2.42 ± 0.22,2.41 ± 0.3
ARQLQLSDPQTVAGAFGYFQQDTK [LPCAT4],3.82 ± 0.41,3.9 ± 0.16
ARSIAEQAHELAYDPNYMSPFAQF [PPTC7],2.91 ± 0.35,3.08 ± 0.27
ASAQKFSSRSTVPTPAKRRSSALW [NET1],3.41 ± 0.039,3.5 ± 0.33
ASFCVETNNGAGFGLSILWVLLFT [SCAMP3],2.86 ± 0.71,2.99 ± 0.12
ASLDNGGCALTTFSVLEGEKNNHR [SOAT1],4.2 ± 0.31,4.34 ± 0.09
ASRTWCFYNTEDIKDWEDRFYLLL [PTGFR],2.15 ± 0.6,2.46 ± 0.38
ASRVSKVNDKRRKKSGEKEQHISK [KMT2E],4.69 ± 0.39,4.45 ± 0.38
ASVSDEELKRRVAEELALEQAKKE [CHCHD3],5.76 ± 0.25,5.45 ± 0.49
ATGLTSGLLSLLLPETLNSPLLET [SLC22A15],2.2 ± 0.46,2.1 ± 0.23
ATQSHSISSSSFGAEPSAPGGGGS [RTN3],5.19 ± 0.23,5.19 ± 0.093
ATQTERRLDLAAVTLRRGLRSRAS [FAM189A2],4.02 ± 0.24,4.41 ± 0.2
ATRSIQVDGKTIKAQIWDTAGQER [RAB11A],4.28 ± 0.33,4.37 ± 0.19

Sequence,protein stability index (treatment: DMSO),"protein stability index (treatment: MLN4924 1 uM, 8 h)"
AVIAQQRRKPDPPKDENERSTCNV [DLC1],5.24 ± 0.21,5.12 ± 0.19
AVIGNFLYVVGGQSNYDTKGKTAV [KLHL13],2.38 ± 0.73,2.24 ± 0.67
AVIRWMHSFNFVLSANLHGGAVVA [CPN1],2.95 ± 0.71,2.88 ± 0.19
AVQKTDEGHPFKAYLELEITLSQE [RTN1],2.24 ± 0.24,2.56 ± 0.17
AVSESYSAPGACEEPTERGNLEVG [FBXO34],5.49 ± 0.12,5.57 ± 0.26
AYEFADRDEVRFFKGNKYWAVQGQ [MMP1],2.54 ± 0.45,2.74 ± 0.61
AYEFNPELVLVSAGFDAARGDPLG [HDAC6],3.11 ± 0.58,3.58 ± 0.23
CDFKIDAGDRFLEALGFSWHDTCF [PDLIM7],2.6 ± 0.5,2.47 ± 0.46
CDKYPHESQLPEEWENNRESLIVF [CPXM2],3.68 ± 0.11,3.44 ± 0.25
CEEQKCEEEVFPLAMNYLDRFLAG [CCND2],3.82 ± 0.17,4.05 ± 0.28
CETTLFALRMATWNQILDPWVYIL [PTGFR],2.89 ± 0.16,2.93 ± 0.6
CFSTGLSRRVLLTNVVTGHRQSFG [DCAF4],2.1 ± 0.18,2.38 ± 0.21
CGVILYILLVGYPPFWDEDQHRLY [CAMK2A],2.98 ± 0.6,3.24 ± 0.91
CIHDHHCGSQLSSTKGSRSNLSTR [NETO1],3.04 ± 0.52,3.33 ± 0.37
CKESSPMPVICGPEENYPSLQMSS [NANOGP8],3.65 ± 0.27,3.74 ± 0.25
CLKKFNARRKLKGAILTTMLATRN [CAMK2A],3.21 ± 0.15,3.32 ± 0.34
CLVCGDVASGYHYGVASCEACKAF [ESRRA],3.96 ± 0.32,3.94 ± 0.23
CPRPCRESAFKLSTGTSRWPSAKS [SCNN1D],2.7 ± 0.62,2.65 ± 0.45
CQEQIEALLESSLRQAQQNMDPKA [CCND1],4.85 ± 0.079,4.63 ± 0.19
CQMFLGKTEAEIAHIALETLEGHQ [FLOT1],3.36 ± 0.43,3.37 ± 0.13
CTFSLTHPANRSCRETGSFLDLFR [SLC22A15],2.31 ± 0.33,2.14 ± 0.45
